These results are taken from the supplement of paper PMC9170038.

This data set concerns K4 kissing-loop RNA reporter. The data set is described as follows: apparent KD of K4 kissing-loop reporter; higher = weaker reporter binding. The note with it: Eterna round: R107. Here is the method:
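RNA-MaP round R107: designed RNA switches with theophylline, tryptophan, arginine or FMN aptamers are transcribed on-chip within common flanks. They are titrated with a labelled K4 kissing-loop RNA reporter in RNA-MaP buffer (100 mM Tris pH 7.5, 80 mM KCl, 4 mM MgCl2), without ligand or with the indicated ligand. Median apparent KD per design.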

The mark [1] stands for this setting: input ligand: theophylline 20 uM.
The mark [2] stands for this setting: input ligand: tryptophan 2.4 mM.
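Note: bound reporter read as fluorescence of individual clusters on recovered sequencing chips by microscopy, with normalized cluster intensities fitted with a binding model.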

On to “CGGCCCGGCGCGGCCGCCACUGUGCCUGGGCGCUUGCCGAGUGAUGUUCGUCGGCGGUCGGGUGGCAGGACCGGGCGCCGGUCCG [BDazzled - #26 SS Tryptophan B]”, for which the “apparent KD of K4 kissing-loop reporter” value was determined as 137 nM (input ligand: FMN 200 uM); 129 nM (input ligand: arginine 13.2 mM); 131 nM (input ligand: none); 123 nM under setting [1]; 134 nM under setting [2].
Turning to “GUUUUAUAAGAGGAUACCAGUACAAAUAAAGUACAUUAAUAGUAGAGUGAUGUUCUAAAGUACCCUUGGCAGCUUAGAUUAAGUU [ExTheophylB.E]”, the “apparent KD of K4 kissing-loop reporter” value runs as follows: (input ligand: FMN 200 uM) 147 nM; (input ligand: arginine 13.2 mM) 236 nM; (input ligand: none) 170 nM; under setting [1], 252 nM; under setting [2], 116 nM.
For “UGCACGGGCUCGGCCGCCACUCCAGCGGGUCGCAAGGUCCGCUACUGAGUGAUGUUCGGUUGGAGGAGGACCGGGAGCCCGUGCG [#2 Exclusion - Tryptophan B Attempt #31 (HarryS)]”, in that order: 146 nM, 114 nM, 133 nM, 139 nM and 126 nM.
For “UGUCAUGGAAACAUGAACGUUAAAAUAAAUCGAGGACCGGUACGGCCGCCACUCGUAUAGCGGUCAGUGAUGUUGACUGUAAUAA [KL-SSTryp-A form2 sub10]”, in that order: 101 nM, 121 nM, 110 nM, 116 nM and 94.3 nM.
On the same counts, the results for “GGCAGAGUGAUGUUCGCCCUUUACCUUGAUACCAGUUCAUCUCAAAACCCUUGGCAGCAAGUGUGUAAGAGCGGUAUUGGUCAAU [theeternabot_exclusion_KL_Theo_A_1]” are 356 nM, 306 nM, 388 nM, 359 nM and 339 nM.
Turning to “GGGCGUGGCGCGGCCGCCACUGGGCCUGGGCGCUCGCUGAGUGAUGUUCGUCGGCGGUUGGGUCGUAGGACCGGGUGCUGGUUGG [BDazzled - #8 SS Tryptophan B]”, the “apparent KD of K4 kissing-loop reporter” value (input ligand: FMN 200 uM) worked out at 402 nM; the “apparent KD of K4 kissing-loop reporter” value (input ligand: arginine 13.2 mM) is 199 nM; the “apparent KD of K4 kissing-loop reporter” value (input ligand: none) was 516 nM; the “apparent KD of K4 kissing-loop reporter” value under setting [1] turned out to be 281 nM; the “apparent KD of K4 kissing-loop reporter” value under setting [2] worked out at 253 nM.
On the same counts, the results for “AGGGUUUAGGACGAUACCAGCCUGGAGGCCAGUGAUGUUGGCCGAUUUGAACAGAAUUAAGGCCCUUGGCAGCGUAUCUAAAACC [Esamaza]” are 280 nM, 291 nM, 320 nM, 161 nM and 259 nM.
Regarding “UUACGGUCCUCGGCCGCCACUCAUAGUGAUGUUAUGCUGCCUGAAGGCACCGGACCUGGAUAUCAGAGGACCGGGAGGCCAUUCG [theeternabot_exclusion_KL_Trp_B_6]”, the “apparent KD of K4 kissing-loop reporter” value (input ligand: FMN 200 uM) is 793 nM; the “apparent KD of K4 kissing-loop reporter” value (input ligand: arginine 13.2 mM) was 590 nM; the “apparent KD of K4 kissing-loop reporter” value (input ligand: none) is 810 nM; the “apparent KD of K4 kissing-loop reporter” value under setting [1] amounted to 560 nM; the “apparent KD of K4 kissing-loop reporter” value under setting [2] came out at 544 nM.
On the same counts, the results for “GGCAUGCGUAGAGUGAUGUUCUAAGAUGAUACCAGUGCGGAAACGCACCCUUGGCAGCAUCUGACUGGCAUGCCGGCGAAAGCCU” are 871 nM, 811 nM, 1240 nM, 770 nM and 982 nM.
With “GCAGUGAUGUUGCAACCGCGUACGAUGCCUCGAGGACCGGUACGGCCGCCACUCGUCCUGGUUCAGGAGCUACAGACAUAGCUCA [theeternabot_sameState_KL_Trp_A_2]”, the “apparent KD of K4 kissing-loop reporter” value reads like this: (input ligand: FMN 200 uM) 563 nM; (input ligand: arginine 13.2 mM) 271 nM; (input ligand: none) 781 nM; under setting [1], 408 nM; under setting [2], 291 nM.
As for “CAAACUCUGACGGCCGCCACUAAUCGUGUAACAGUGAUGUUGUUACAUCAAAGAUGGGUUGCGUGUAGGACCGGGUCGACGCAAA [theeternabot_exclusion_KL_Trp_B_48]”, the “apparent KD of K4 kissing-loop reporter” value (input ligand: FMN 200 uM) turned out to be 131 nM; the “apparent KD of K4 kissing-loop reporter” value (input ligand: arginine 13.2 mM) is 120 nM; the “apparent KD of K4 kissing-loop reporter” value (input ligand: none) amounted to 120 nM; the “apparent KD of K4 kissing-loop reporter” value under setting [1] amounted to 111 nM; the “apparent KD of K4 kissing-loop reporter” value under setting [2] came to 124 nM.
Turning to “GCAGUGAUGUUGCGCGGGUACAGUGGAGUGCGAGGACCGGUACGGCCGCCACUCGUACAGAACUGGCUAAUAUAUGGAUAGGUGA [VII]”, the “apparent KD of K4 kissing-loop reporter” value (input ligand: FMN 200 uM) came out at 271 nM; the “apparent KD of K4 kissing-loop reporter” value (input ligand: arginine 13.2 mM) is 169 nM; the “apparent KD of K4 kissing-loop reporter” value (input ligand: none) was 305 nM; the “apparent KD of K4 kissing-loop reporter” value under setting [1] amounted to 169 nM; the “apparent KD of K4 kissing-loop reporter” value under setting [2] is 210 nM.
On to “AAGUCACAGGCAGGAUAUGCUUAGUAUUAAGGCCAUAUAUACGUAUAGAGUGAUGUUUUGUACCAGGCAGAAGGGCUACAUCCGU [FMN B Excl V4 (+U)]”, for which the “apparent KD of K4 kissing-loop reporter” value by setting is: (input ligand: FMN 200 uM) 930 nM; (input ligand: arginine 13.2 mM) 440 nM; (input ligand: none) 656 nM; under setting [1], 645 nM; under setting [2], 463 nM.
As to “UGUAAUGAGUGAUGUUCAUGUAGUAAGGAUACCAGUAAUUCAAAAUGCCCUUGGCAGCUUAGUUCUAUCUAUAGUUGGGUAGUGG [Theophilline A V4 (+5U)]”, the “apparent KD of K4 kissing-loop reporter” value runs as follows: (input ligand: FMN 200 uM) 162 nM; (input ligand: arginine 13.2 mM) 209 nM; (input ligand: none) 205 nM; under setting [1], 206 nM; under setting [2], 123 nM.
Consider “AAGCAGUCACUCAAAGCCAUCGAAGAUGGUCGAGGACCGGUACGGCCGCCACUCGGAGUGAUGUUCCGAAGACUGCAAAAUAAAA”, for which the “apparent KD of K4 kissing-loop reporter” value runs as follows: (input ligand: FMN 200 uM) 407 nM; (input ligand: arginine 13.2 mM) 394 nM; (input ligand: none) 424 nM; under setting [1], 411 nM; under setting [2], 346 nM.
For “UAGAGGAGACUCUAAUUCCUUAAGUCCGAAGGAGCGACCCAAUGGUCAGGUAGGUCGCGGACAAUCCUAGUGAUGUUAGGAUCUG [Arg A SS t5a]”, in that order: 141 nM, 136 nM, 160 nM, 170 nM and 129 nM.
On the same counts, the results for “UUUCUACCGGGAAGGAGCGUGAAUGAUAAUGGAUAUAGUGAUGUUAUAUAUACGAACGAAUCGCAGGUAGGUCGCCCGGAUCACU [SSArgB.U]” are 655 nM, 859 nM, 1470 nM, 1480 nM and 1090 nM.
On the same counts, the results for “GAGAACUCUUACGAUACCAGCCGGAGUGAUGUUCCGCGCUUGGACGUAGUAACCCGCACCGGCCCUUGGCAGCGUGGAUCCUAUG [Bibiinor]” are 91.1 nM, 81.2 nM, 86.1 nM, 86.8 nM and 80.5 nM.
